Results: patent US6964763B1, “Methods and compositions for inhibiting HIV infectivity and blocking chemokine activity” (priority 1997, dated 2005)

B1: CFP67-157: GST fusion protein containing the TSP1 binding domain of CD36 (aa 67-157) (protein)
chain: IFDVQNPQEVMMNSSNIQVKQRGPYTYRVRFLAKENVTQDAEDNTVSFLQPNGAIFEPSLSVGTEADNFTVLNLAVAAASHIYQNQFVQMI
modifications: left off: a dimerising Fc or GST
B2: LFP156-243: control GST fusion protein representing downstream LIMPII sequences (protein)
chain: IEAMLKAYQQKLFVTHTVDELLWGYKDEILSLIHVFRPDISPYFGLFYEKNGTNDGDYVFLTGEDSYLNFTKIVEWNGKTSLDWWITD
modifications: left off: a dimerising Fc or GST
B3: LFP75-155: GST fusion protein containing the LIMPII TSP binding domain (aa 75-155) (protein)
chain: ILRGETPRVEEVGPYTYRELRNKANIQFGDNGTTISAVSNKAYVFERDQSVGDPKIDLIRTLNIPVLTVIEWSQVHFLREI
modifications: left off: a dimerising Fc or GST
B4: LIMPII peptide: LIMPII TSP-binding peptide, 10 kDa product purified after removal of GST moiety by proteolytic cleavage (protein)
chain: B3 chain

Experiments:
[1] = tested on: CD4-gp120 complex formation; test: Competitive inhibition of 125I-CD4 binding to immobilized gp120; set-up: species or system HIV-1 (MN and LAI isolates); details: 10-fold molar excess (0.5 μM) competitor, 50 nM 125I-CD4, MN and LAI gp120
Description: FIG. 5 is a graph showing competitive inhibition of ^125I-CD4 binding to gp120. […] Samples were incubated, and bound TSP1 was measured as in FIG. 2. A single data set of triplicate samples (η=3, error as SD) is shown.
Radiolabeling was performed with Na[^125I]
These observations support a role for salivary TSP1 as a direct inhibitor of HIV infectivity.

[2] = molecular target: recombinant HIV-1 gp160 (gp120 non-covalently linked to gp41) (Human immunodeficiency virus type 1 group M subtype B, UniProt P03375); details: 10-fold molar excess (0.5 μM) unlabeled competitor, 50 nM 125I-TSP1
Description: Increasing concentrations of soluble ^125I-labeled TSP1 (1 nM-μM) were added to immobilized recombinant HIV-1 gp160 for 3 hours at 22° C., and bound TSP1 measured after extensive washing. Non-linear curve fit was generated with Excell™ version 5.0. Apparent affinity was estimated from Scatchard analysis. (n=2; error calculated as standard deviation, SD).
A fixed concentration of ^125I-labeled TSP 1(50 nM) was added to immobilized rgp 160 in the absence or presence of 10-fold molar excess (0.5 μM) unlabeled TSP1, fusion protein LFP75-155 containing the LIMPII TSP binding domain (aa 75-155), or downstream fusion protein LFP 156-243. Samples were incubated, and bound TSP 1 was measured as in FIG. 2A. Plots represent single data sets of triplicate samples. (n=3, error as SD).
Briefly, TSP1 (5-10 μg/ml) or fusion proteins and peptides (10-20 μg/ml) were immobilized on detachable 96-well microtiter plate strips (Immulon-4 Remov-a-well, Dynatech Laboratories, Inc.), by overnight incubation at 4° C. in carbonate buffer (100 mM Na2CO3/1 mM MgCl2/0.02% NaN3, pH 9.8). Washed wells were blocked with 0.5% bovine serum albumin (“BSA”), then incubated in triplicate with soluble radiolabeled ligand for 2.5 hours at 37° C. After extensive washing in 50 mM Tris pH 7.5, 150 mM NaCl, 0.5% Tween-20 (TBS-Tween), bound radioactivity was quantified by gamma counter. Radiolabeling was performed with Na[^125I] […] Specific activity of Na[^125I] was determined for each experiment, ranging from 0.06-1.0 μCi/μg. Specific binding was determined as quenchable in the presence of excess unlabeled ligand, above background binding to BSA-coated wells.

[3] = tested on: HIV-1 isolate IIIB; test: HIV-1 infectivity assay, virus pre-incubated with TSP1 or saliva, p24 ELISA day 7; assay type: cell-based
Description: HIV-1 isolate IIIB was pre-incubated in the absence of TSP1, or with various concentrations of purified TSP1 for 1 hour at 37° C. Pre-incubated virus-TSP1 mixtures were added to target cells either directly (−), or first passed through 0.2 μm filters (+). Phorbol myrisate acetate (“PMA”) activated primary peripheral blood mononuclear cells (“PBMC”), SK23 (T-cell line) or U937 (promonocytic line) were inoculated with the multiplicities of infection (“moi”) indicated. After an additional 1 hour at 37° C., infected cells were washed, cultured for 7 days, and HIV-1 p24 antigen measured by ELISA. Inhibition is expressed for a single data set as percent of maximum p24 detected in the absence of TSP1.
PMA-stimulated primary PBMC were infected with 0.02 moi HIV/IIIB that had been pre-incubated with TSP1 alone, or with LIMPII fusion protein LFP75-155 alone or in the presence of TSP1, and filtered prior to incubation as in FIG. 7. TSP-mediated inhibition is expressed as percent decrease in p24 relative to maximum p24 detected in the absence of TSP 1. Data shown represent the average of two independent experiments (error as SD). […]

Row | Molecule | inhibition of 125I-CD4 binding to immobilized gp120 [1] [%] | inhibition of 125I-TSP1 binding to gp160 [2] | abrogation of the inhibitory effect of TSP1 by competitor ([3]; 1 μM LIMPII peptide, 50-100 μg/ml TSP1, PBMC, 0.02 moi) | decrease of HIV-1 infectivity, peptide alone ([3]; LIMPII peptide alone, PBMC) [%]
1 | B1 | ~89 | – | – | –
2 | B2 | 32±5 | did not | – | –
3 | B3 | ~89 | 47±14% | – | –
4 | B4 | – | – | 83-90% | 9
